± gives the uncertainty stated by the source.

A short description of the data set: amyloid nucleation score (Sup35N fusion, yeast selection) (log enrichment); library NNK2; higher = more nucleation; inactive = no reads after selection. Put shortly: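 After 24 hours of induction with 100 μM copper sulfate, psi-negative yeast expressing peptides of 20 random codons fused to Sup35N were grown for 7 days at 30°C on medium lacking adenine and uracil. Input and output plasmid inserts were sequenced with Illumina, and sequences with under 100 input reads were discarded. Scores for nucleation are the DiMSum log enrichment of output over input reads, centred on the mode score of non-aggregating sequences.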
RNGVLAIGLY returned an amyloid nucleation score of -0.759 ± 0.63.
With VVPYS the entry was “inactive”; with AEYRNDMAIEVSSSYCCGY, 3.43 ± 0.082.
NICITHPH showed an amyloid nucleation score of 0.299 ± 0.64.
With VHNQGFLFL the figure was -0.07 ± 0.76; with TPATVEYGDNCVYDY, -0.987 ± 0.44; with SDHFKWV, -1.05 ± 1.
With TGWSGRGMVKSDPYRACGGD the figure was -0.11 ± 0.35; with YHEVFLTLSIEWRMMLWVG, -0.318 ± 0.28; with KIYSTSYDNNTSYISCVWSH, 6.708 ± 0.029.
With CRIQPDFRFMCLRNCGLESR the figure was -0.855 ± 1; with WFHGTGSQHS, “inactive”.
With RHTSNTIIDELFLDSMGWHN, the amyloid nucleation score was 9.016 ± 0.05.
RHQYETKYRPYRVIPLQRMV: the amyloid nucleation score was found to be 0.277 ± 0.46.
Substance LASTALVLDP gave an amyloid nucleation score of 1.14 ± 0.31.
For the substance WMSMKFCFIFLPFYKSSVCM, the amyloid nucleation score was found to be 1.91 ± 0.18.
With TFTSRGMMSLGFGRR the figure was 6.01 ± 0.08; with ASFCNVWGDNVWRYTLLRFK, “inactive”; with DMQGRVVRR, -0.855 ± 0.61.
Next, RYWWRVRIYFVCCVSSLDWV: 7.09 ± 0.077; LGGWLNGKGDPSMTASTSAS: 0.799 ± 0.32; NTLSRYHFNGVRVYCEMTAL: “inactive”.
With SVECKCYYRL the figure was 5.59 ± 0.062; with RILYLTTDGRKLM, “inactive”; with VNPCVWIRIYWRS, -0.014 ± 0.65.
With YLVNNNFFVTIVILVWRTGV, the amyloid nucleation score stood at 1.39 ± 0.18.
With LLPWSPLKVVTSGYSTF the figure was -1.03 ± 0.78; with DERGMCSLWSRCEYV, -0.287 ± 0.29; with QRQDDSVFHDVSHLGQGSSK, 9.066 ± 0.078.
Consider IRSSWIANVLSANSRGRNNQ, for which the amyloid nucleation score amounted to 0.382 ± 0.33.
With MGCCIYCYSRIDHL the figure was 8.743 ± 0.055; with DSGRA, -0.351 ± 0.63; with RNWPVIVVWAKTGCQCSFLM, -0.544 ± 0.36.
With MFFFYKFMKDKIGN the figure was 4.37 ± 0.051; with LMDERGMTKMTYFVYLLKKA, 0.661 ± 0.23; with TPTYLRYIVVIYL, 2.41 ± 0.11.
Next, YCAFSMYMFKGIIRYAICVV: -1.25 ± 0.38; YMRVLGVDGHIRCVWLD: “inactive”; TEELRRFCGSFCTGYISMVW: “inactive”.
For the substance SGSHVYFKSCTGLKLPIVLG, the amyloid nucleation score is 4.498 ± 0.04.
With KGLLCTHESMGVYRDSWPCY the figure was -0.067 ± 0.49; with TIWRCFLT, 0.685 ± 0.33.
CFLCMQSLS: the amyloid nucleation score was found to be 1.34 ± 0.33.
Next, EVANGKFCNFGSLYDLMWWE: -0.348 ± 0.76; LMPGMVGDRRGCNDK: 0.49 ± 0.26.
With DCSYYPSGIFMGLMFNLIAM the figure was 3.23 ± 0.064.
With WRGSLTSPAPGET the figure was 1.87 ± 0.17; with RSGLLDMS, -0.129 ± 1.1; with FAKFQGSKISPVSHTSLLST, “inactive”.
Consider VGDVGMFFLSR, for which the amyloid nucleation score is -0.668 ± 0.34.
Next, CNNSVGVFYKGLTELLCLRS: -0.986 ± 1.1.
With AYDIHTIREMFRSSSRLYGW the figure was 5.854 ± 0.033.
FIICTEWPSDLLNWSSVANW yielded an amyloid nucleation score of -0.658 ± 1.
In the case of QSAFSKF, the amyloid nucleation score entry was “inactive”.
Next, THSHTSCKDASSEMRSPCNV: 0.264 ± 0.33; LDMGCNRPEVYGNKCAMVSW: 0.75 ± 0.21.
Next, LVHCLSPRIVATGVPHGMMV: 1.04 ± 0.35; LQVMEIYSLSIYYIYFLYIG: “inactive”.
With RSTPLKYNLRFIPLSHGRRV the figure was -0.431 ± 0.48; with FASLCTW, -0.211 ± 0.46.
Substance WFYTYSLFGFVVNIVFTYPL registered an amyloid nucleation score of -0.176 ± 0.36.
With QDNRYPLFVLSTLLSLIFLL, the amyloid nucleation score entry was “inactive”.
Next, TNCTDEGIILCHP: -0.19 ± 1.1; FWCCANRSLVISLI: -0.907 ± 0.4; LTYLFVQSSVAWLSLMIH: 0.253 ± 0.6.
Next, AQWSRIDCNTLCKAVPISLA: 5.773 ± 0.056; CMRVVDGCFYFLDWSGVTDF: -1.55 ± 1.1.
SLFAVQTVVEVVVHV displayed an amyloid nucleation score of 0.762 ± 0.41.
HSWAKMFMMLWGTMSRWDRA came in with an amyloid nucleation score of -0.205 ± 0.62.
With AFSLCFRYYLPRVNASG the figure was -0.147 ± 1.1.
With WPRFTCCPTYYICIAQSPGQ the figure was 9.807 ± 0.035; with SYRLYFFMGFDMLYLCMG, -0.177 ± 0.79.
With IFTYCVWSFSWFW the figure was 7.302 ± 0.053.
As for GTLPA, the amyloid nucleation score was -0.747 ± 0.48.
With ICSTVSVIKT the figure was -0.249 ± 0.64.
Next, FPRDILVS: -0.13 ± 0.76; PAVSYFFITFYVIVRFRLAE: 2.86 ± 0.18; YETCSFKNPTFFPRNLYKMW: -0.103 ± 0.46.
With DNWVLYNCFTTSEKLSM the figure was 0.553 ± 0.19; with KLPFELKSDDFTCFNWANSR, -0.097 ± 1.1.
VSLGDYASAGFLMWIRLHVW returned an amyloid nucleation score of -0.03 ± 0.56.
SWEKIGDCYIRWYLLHAGCL: the amyloid nucleation score result was “inactive”.
With SPSDAL the figure was -0.578 ± 0.36; with FENYYGSHGDFGVYDKFNHL, “inactive”; with ILAQNCSFYLGVTLRIARRH, 1.21 ± 0.43.
Turning to FVVESVKVNRSLACF, the amyloid nucleation score was -0.205 ± 0.45.
Next, RFFYYVVTLDAFNTFHKHLG: -1.56 ± 1.1; YTFGTNWVCW: 3.6 ± 0.062; LNWIIVCLNN: 4.98 ± 0.058.
With RAYCAYTLR the figure was 5.94 ± 0.071; with IWQMLVMMKAWKMCPTLVRY, 1.09 ± 0.41; with NFPAWCV, 0.495 ± 0.19.
Next, ILSCVARGCYYTTL: -1.38 ± 1.1.
Consider LPMNQGLHYKWLFFAISGGL, for which the amyloid nucleation score result was “inactive”.
With LSNCNRMLAGQGGGSRSDWR the figure was 0.907 ± 0.37; with YSFVCIRIGPLKEVCKLNSC, -0.774 ± 1.1; with TLAFCFFLTKLSVQCFLYPP, 0.241 ± 0.8.
With RSGNRGPVARYVGYERCMGK the figure was 0.629 ± 0.56; with CNRVHYFFCFSCLWMFVFID, -2.07 ± 1.1; with PMMWESESYPLIF, -0.268 ± 0.79.
Regarding GAAFILSIYYQPSTTPPLRA, the amyloid nucleation score was determined as 2.62 ± 0.084.
On to QFAHFKNLWVFVLSCRWLPT, for which the amyloid nucleation score is -0.158 ± 0.35.
With GRVMMEC the figure was 0.465 ± 0.33; with NRSLD, -1.26 ± 0.54.

The values are drawn from the supplement of paper PMC12042874.
